Two molecules from article PMC11237882 (2024) can be followed below.

Common to all, as to assay: BLI (SUMO-peptide on tip, monomeric EVH1)
One assay deals with T1, PCDH15 (Homo sapiens (Human), UniProt Q96QU1).
T1 chain: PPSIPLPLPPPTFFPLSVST

A further assay concerns the target T2, PRRC2B (Homo sapiens (Human), UniProt Q5JSZ5).
T2 chain: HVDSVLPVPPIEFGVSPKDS

Another assay addresses T3, FAT1 (Homo sapiens (Human), UniProt Q14517).
T3 chain: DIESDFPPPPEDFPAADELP

A further assay addresses T4, RARA (Homo sapiens (Human), UniProt P10276).
T4 chain: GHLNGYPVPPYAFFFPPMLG

The next assay concerns the target T5, APBB1IP_1 (Homo sapiens (Human), UniProt Q7Z5R6).
T5 chain: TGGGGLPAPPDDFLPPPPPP

In another assay the target is T6, DSCAM (Homo sapiens (Human), UniProt O60469).
T6 chain: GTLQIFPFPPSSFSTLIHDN

A value given as a limit tells only on which side of the number the result lay.

B1: HOMER1 (protein)
chain: MGEQPIFSTRAHVFQIDPNTKKNWVPTSKHAVTVSYFYDSTRNVYRIISLDGSKAIINSTITPNMTFTKTSQKFGQWADSRANTVYGLGFSSEHHLSKFAEKFQEFKEAARLA
Usually Kd stands for the constant that tells how readily two partners part at equilibrium. Read a low Kd as tighter binding. As for B1, the Kd with PCDH15 was > 150 µM; in the assay with PRRC2B, 100 µM; in the assay with FAT1 it was 98 µM; with RARA, 100 µM; with APBB1IP_1 it was > 150 µM.

B2: ENAH (protein)
chain: MSEQSICQARAAVMVYDDANKKWVPAGGSTGFSRVHIYHHTGNNTFRVVGRKIQDHQVVINCAIPKGLKYNQATQTFHQWRDARQVYGLNFGSKEDANVFASAMMHALEVLNS
Turning to B2, the Kd in the assay with PRRC2B, in the assay with DSCAM and in the assay with RARA was > 150 µM in each case.
